{"source": "patent US20230303994", "proteins": {"B1": {"name": "trypsin variant SEQ ID NO: 53 (protein)", "chain": "IVGGYTCAANSIPYQVSLNSGSHRCGGSLINSQWVVSAAHCYKPRIQVRLGEHNIDVLEGNEQFINAAKIITHPNFNGNTLDNDIMLIKLSSPATLNSRVATVSLPRSCAAAGTECLISGWGNTKSSGSSYPSLLQCLKAPVLSDSSCKSSYPGQITGNMICVGFLEGGKDACQGDSGGPVVCNGQLQGIVSSGYGCAQKNKPGVYTKVCNYVNWIQQTIAAN"}, "B2": {"name": "trypsin variant SEQ ID NO: 73 (protein)", "chain": "B1 chain with P44S, G78A"}, "B3": {"name": "trypsin variant SEQ ID NO: 40 (protein)", "chain": "B1 chain with P44S, Y131E"}, "B4": {"name": "trypsin variant SEQ ID NO: 10 (protein)", "chain": "B1 chain with P44S, R99T"}, "B5": {"name": "trypsin variant SEQ ID NO: 43 (protein)", "chain": "B1 chain with P44S, A172T"}, "B6": {"name": "trypsin variant SEQ ID NO: 77 (protein)", "chain": "B1 chain with D56H, R99H, R107T, K125C, Y131M"}, "B7": {"name": "trypsin variant SEQ ID NO: 85 (protein)", "chain": "B1 chain with D56H, G78P, R99H, R107T, K125C, Y131M"}, "B8": {"name": "trypsin variant SEQ ID NO: 45 (protein)", "chain": "B1 chain with P44S, A172C"}, "B9": {"name": "trypsin variant SEQ ID NO: 79 (protein)", "chain": "B1 chain with D56H, G78P, R99H, K125A, Y131M"}, "B10": {"name": "trypsin variant SEQ ID NO: 9 (protein)", "chain": "B1 chain with P44S, R99Y"}, "B11": {"name": "trypsin variant SEQ ID NO: 35 (protein)", "chain": "B1 chain with P44S, Y131L"}, "B12": {"name": "trypsin variant SEQ ID NO: 51 (protein)", "chain": "B1 chain with R24K, P44S"}, "B13": {"name": "trypsin variant SEQ ID NO: 83 (protein)", "chain": "B1 chain with D56H, G78P, R99N, R107T, K125S, Y131M"}, "B14": {"name": "trypsin variant SEQ ID NO: 74 (protein)", "chain": "B1 chain with P44S, G78P"}, "B15": {"name": "trypsin variant SEQ ID NO: 46 (protein)", "chain": "B1 chain with R24A, P44S"}, "B16": {"name": "trypsin variant SEQ ID NO: 88 (protein)", "chain": "B1 chain with D56H, G78P, R99H, R107T, K125S, Y131M, A172S"}, "B17": {"name": "trypsin variant SEQ ID NO: 82 (protein)", "chain": "B1 chain with D56H, G78P, R99H, K125C, Y131M"}, "B18": {"name": "trypsin variant SEQ ID NO: 39 (protein)", "chain": "B1 chain with P44S, Y131N"}, "B19": {"name": "trypsin variant SEQ ID NO: 50 (protein)", "chain": "B1 chain with R24N, P44S"}, "B20": {"name": "trypsin variant SEQ ID NO: 80 (protein)", "chain": "B1 chain with P44S, D56H, G78P, R99H, R107T, K125S, Y131M"}, "B21": {"name": "trypsin variant SEQ ID NO: 48 (protein)", "chain": "B1 chain with R24M, P44S"}, "B22": {"name": "trypsin variant SEQ ID NO: 49 (protein)", "chain": "B1 chain with R24T, P44S"}, "B23": {"name": "trypsin variant SEQ ID NO: 33 (protein)", "chain": "B1 chain with P44S, R107T"}, "B24": {"name": "trypsin variant SEQ ID NO: 84 (protein)", "chain": "B1 chain with D56H, G78P, R99N, R107T, K125S, Y131M, A172S"}, "B25": {"name": "trypsin variant SEQ ID NO: 78 (protein)", "chain": "B1 chain with P44S, D56H, G78P, R99H, R107T, K125C"}, "B26": {"name": "trypsin variant SEQ ID NO: 38 (protein)", "chain": "B1 chain with P44S, Y131C"}, "B27": {"name": "trypsin variant SEQ ID NO: 6 (protein)", "chain": "B1 chain with P44S, R99F"}, "B28": {"name": "trypsin variant SEQ ID NO: 5 (protein)", "chain": "B1 chain with P44S, R99L"}, "B29": {"name": "trypsin variant SEQ ID NO: 87 (protein)", "chain": "B1 chain with D56H, G78P, R99H, R107T, K125S, Y131M"}, "B30": {"name": "trypsin variant SEQ ID NO: 34 (protein)", "chain": "B1 chain with P44S, Y131A"}, "B31": {"name": "trypsin variant SEQ ID NO: 81 (protein)", "chain": "B1 chain with P44S, D56H, G78P, R99H, R107T, K125A, Y131M"}, "B32": {"name": "trypsin variant SEQ ID NO: 86 (protein)", "chain": "B1 chain with G78P, R99A, R107T, K125S, Y131M"}, "B33": {"name": "trypsin variant SEQ ID NO: 47 (protein)", "chain": "B1 chain with R24I, P44S"}, "B34": {"name": "trypsin variant SEQ ID NO: 37 (protein)", "chain": "B1 chain with P44S, Y131T"}, "B35": {"name": "trypsin variant SEQ ID NO: 56 (protein)", "chain": "B1 chain with P44S, D56N"}, "B36": {"name": "trypsin variant SEQ ID NO: 32 (protein)", "chain": "B1 chain with P44S"}, "B37": {"name": "trypsin variant SEQ ID NO: 42 (protein)", "chain": "B1 chain with P44S"}, "B38": {"name": "trypsin variant SEQ ID NO: 44 (protein)", "chain": "B1 chain with P44S, A172S"}, "B39": {"name": "trypsin variant SEQ ID NO: 57 (protein)", "chain": "B1 chain with P44S, D56H"}}, "note": "Numbering of substitutions follows the chain as printed."}
{"biological_target": "pre-pro-human insulin", "units": {"Selectivity": "%"}}
{"protein": "B1", "Activity PPI cleavage": "yes", "Selectivity": ">90"}
{"protein": "B2", "Activity PPI cleavage": "yes", "Selectivity": ">90"}
{"protein": "B3", "Activity PPI cleavage": "yes", "Selectivity": ">80"}
{"protein": "B4", "Activity PPI cleavage": "yes", "Selectivity": ">90"}
{"protein": "B5", "Activity PPI cleavage": "yes", "Selectivity": ">80"}
{"protein": "B6", "Activity PPI cleavage": "yes", "Selectivity": ">90"}
{"protein": "B7", "Activity PPI cleavage": "yes", "Selectivity": ">90"}
{"protein": "B8", "Activity PPI cleavage": "yes", "Selectivity": ">65"}
{"protein": "B9", "Activity PPI cleavage": "yes", "Selectivity": ">90"}
{"protein": "B10", "Activity PPI cleavage": "yes", "Selectivity": ">90"}
{"protein": "B11", "Activity PPI cleavage": "yes", "Selectivity": ">90"}
{"protein": "B12", "Activity PPI cleavage": "yes", "Selectivity": ">70"}
{"protein": "B13", "Activity PPI cleavage": "yes", "Selectivity": ">90"}
{"protein": "B14", "Activity PPI cleavage": "yes", "Selectivity": ">90"}
{"protein": "B15", "Activity PPI cleavage": "yes", "Selectivity": ">70"}
{"protein": "B16", "Activity PPI cleavage": "yes", "Selectivity": ">90"}
{"protein": "B17", "Activity PPI cleavage": "yes", "Selectivity": ">90"}
{"protein": "B18", "Activity PPI cleavage": "yes", "Selectivity": ">90"}
{"protein": "B19", "Activity PPI cleavage": "yes", "Selectivity": ">65"}
{"protein": "B20", "Activity PPI cleavage": "yes", "Selectivity": ">90"}
{"protein": "B21", "Activity PPI cleavage": "yes", "Selectivity": ">80"}
{"protein": "B22", "Activity PPI cleavage": "yes", "Selectivity": ">80"}
{"protein": "B23", "Activity PPI cleavage": "yes", "Selectivity": ">90"}
{"protein": "B24", "Activity PPI cleavage": "yes", "Selectivity": ">90"}
{"protein": "B25", "Activity PPI cleavage": "yes", "Selectivity": ">80"}
{"protein": "B26", "Activity PPI cleavage": "yes", "Selectivity": ">80"}
{"protein": "B27", "Activity PPI cleavage": "yes", "Selectivity": ">90"}
{"protein": "B28", "Activity PPI cleavage": "yes", "Selectivity": ">90"}
{"protein": "B29", "Activity PPI cleavage": "yes", "Selectivity": ">90"}
{"protein": "B30", "Activity PPI cleavage": "yes", "Selectivity": ">90"}
{"protein": "B31", "Activity PPI cleavage": "yes", "Selectivity": ">90"}
{"protein": "B32", "Activity PPI cleavage": "yes", "Selectivity": ">90"}
{"protein": "B33", "Activity PPI cleavage": "yes", "Selectivity": ">90"}
{"protein": "B34", "Activity PPI cleavage": "yes", "Selectivity": ">90"}
{"protein": "B35", "Activity PPI cleavage": "yes", "Selectivity": ">90"}
{"protein": "B36", "Activity PPI cleavage": "yes", "Selectivity": ">90"}
{"protein": "B37", "Activity PPI cleavage": "yes", "Selectivity": ">90"}
{"protein": "B38", "Activity PPI cleavage": "yes", "Selectivity": ">80"}
{"protein": "B39", "Activity PPI cleavage": "yes", "Selectivity": ">90"}
{"biological_target": "pre-pro-insulin glargine", "units": {"Purity Insulin Glargine": "area %", "Yield": "%", "desArg": "area %", "desThr": "area %"}}
{"protein": "B1", "Purity Insulin Glargine": 81.3, "Yield": "> 80", "desArg": "< 0.5", "desThr": 2.1}
{"protein": "B2", "Purity Insulin Glargine": 83, "Yield": "> 90", "desArg": "< 0.5", "desThr": 2.2}
{"protein": "B4", "Purity Insulin Glargine": 82.7, "Yield": "> 90", "desArg": "< 0.5", "desThr": 2.6}
{"protein": "B6", "Purity Insulin Glargine": 88.2, "Yield": "> 90", "desArg": 0.5, "desThr": 1.6}
{"protein": "B7", "Purity Insulin Glargine": 85.4, "Yield": "> 90", "desArg": 1.1, "desThr": 0.2}
{"protein": "B9", "Purity Insulin Glargine": 87.8, "Yield": "> 90", "desArg": 0.7, "desThr": 0.3}
{"protein": "B10", "Purity Insulin Glargine": 85.2, "Yield": "> 90", "desArg": "< 0.5", "desThr": 3.6}
{"protein": "B13", "Purity Insulin Glargine": 89, "Yield": "> 90", "desArg": "< 0.5", "desThr": 1.2}
{"protein": "B14", "Purity Insulin Glargine": 82.4, "Yield": "> 80", "desArg": "< 0.5", "desThr": 2.1}
{"protein": "B16", "Purity Insulin Glargine": 84.3, "Yield": "> 90", "desArg": 0.7, "desThr": 1.9}
{"protein": "B17", "Purity Insulin Glargine": 83.8, "Yield": "> 80", "desArg": 0.6, "desThr": 0.3}
{"protein": "B20", "Purity Insulin Glargine": 90.1, "Yield": "> 90", "desArg": 0.9, "desThr": 0.5}
{"protein": "B24", "Purity Insulin Glargine": 85.4, "Yield": "> 90", "desArg": 0.6, "desThr": 1.6}
{"protein": "B25", "Purity Insulin Glargine": 85.1, "Yield": "> 90", "desArg": 0.5, "desThr": 1.6}
{"protein": "B29", "Purity Insulin Glargine": 83.8, "Yield": "> 80", "desArg": 0.6, "desThr": 0.3}
{"protein": "B31", "Purity Insulin Glargine": 89.7, "Yield": "> 90", "desArg": 1.2, "desThr": 0.5}
{"protein": "B32", "Purity Insulin Glargine": 79.3, "Yield": "> 80", "desArg": 0.8, "desThr": 0.1}
{"protein": "B35", "Purity Insulin Glargine": 85.3, "Yield": "> 90", "desArg": "< 0.5", "desThr": 2}
{"protein": "B39", "Purity Insulin Glargine": 87.5, "Yield": "> 90", "desArg": "< 0.5", "desThr": 2.3}
